Experiment [1] has as its target T1, FcγRIa extracellular domain with C-terminal His tag (human, UniProt P12314 16-292).
T1 construct: also called FcgRIa; CD64; not shown: His tag at the C terminus
The experiment is described as follows: SPR, antibody captured, FcgR analyte. On the technique in general: In SPR one partner is held on a chip, and binding of the other changes the refractive index at the surface.

Experiment [2] deals with T2, FcγRIIa R type extracellular domain with C-terminal His tag (human, UniProt P12318 34-217).
T2 construct: extracellular domain; also called FcgRIIaR; not shown: His tag at the C terminus
T2 sequence (looked up): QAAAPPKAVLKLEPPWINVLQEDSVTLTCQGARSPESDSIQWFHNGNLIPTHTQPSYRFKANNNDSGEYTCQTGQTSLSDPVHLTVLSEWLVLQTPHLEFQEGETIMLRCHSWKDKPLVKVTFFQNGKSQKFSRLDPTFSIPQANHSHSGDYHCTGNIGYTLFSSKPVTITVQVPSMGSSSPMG
Description: SPR, antibody captured, FcgR analyte.

Experiment [3] concerns the target T3, FcγRIIa H type extracellular domain with C-terminal His tag (human, UniProt P12318 34-217).
T3 construct: extracellular domain; also called FcgRIIaH; not shown: His tag at the C terminus
T3 sequence (looked up): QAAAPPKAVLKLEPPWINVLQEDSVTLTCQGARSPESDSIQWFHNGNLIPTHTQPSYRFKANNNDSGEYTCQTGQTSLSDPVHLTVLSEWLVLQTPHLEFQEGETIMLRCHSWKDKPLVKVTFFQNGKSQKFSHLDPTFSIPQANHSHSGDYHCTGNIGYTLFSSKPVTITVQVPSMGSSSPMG
Description: SPR, antibody captured, FcgR analyte.

The target of experiment [4] is T4, FcγRIIb extracellular domain with C-terminal His tag (human, UniProt P31994 43-217).
T4 construct: extracellular domain; also called FcgRIIb; not shown: His tag at the C terminus
T4 sequence (looked up): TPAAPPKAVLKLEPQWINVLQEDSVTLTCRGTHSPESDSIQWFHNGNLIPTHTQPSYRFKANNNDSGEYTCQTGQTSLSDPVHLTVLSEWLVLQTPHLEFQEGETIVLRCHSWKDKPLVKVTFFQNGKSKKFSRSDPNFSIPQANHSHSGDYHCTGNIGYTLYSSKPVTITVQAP
The experiment is described as follows: SPR, antibody captured, FcgR analyte.

Experiment [5] has as its target T2, FcγRIIa R type extracellular domain …. Description: SPR; KD of IL6R-B3/IL6R-L divided by KD of variant.
Experiment [6] deals with T4, FcγRIIb extracellular domain with …. Description: SPR; KD of IL6R-B3/IL6R-L divided by KD of variant.

In general, Kd refers to the concentration at which binding is half-saturated.

T1 sequence (P12314 16-292): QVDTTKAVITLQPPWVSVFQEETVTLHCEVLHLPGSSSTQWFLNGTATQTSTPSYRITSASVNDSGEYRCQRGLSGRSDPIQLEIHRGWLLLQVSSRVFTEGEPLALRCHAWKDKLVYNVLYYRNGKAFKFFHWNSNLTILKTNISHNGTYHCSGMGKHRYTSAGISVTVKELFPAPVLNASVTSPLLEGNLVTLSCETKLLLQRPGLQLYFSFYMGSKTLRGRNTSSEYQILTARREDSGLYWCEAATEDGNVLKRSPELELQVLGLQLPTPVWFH

B1: IL6R-BP502/IL6R-L (antibody, human IgG1, kappa, name in EU numbering)
heavy: QVQLQESGPGLVKPSETLSLTCAVSGHSISHDHAWSWVRQPPGEGLEWIGFISYSGITNYNPSLQGRVTISRDNSKNTLYLQMNSLRAEDTAVYYCARSLARTTAMDYWGEGTLVTVSSASTKGPSVFPLAPSSKSTSGGTAALGCLVKDYFPEPVTVSWNSGALTSGVHTFPAVLQSSGLYSLSSVVTVPSSSLGTQTYICNVNHKPSNTKVDKKVEPKSCDKTHTCPPCPAPDLLGDDSVFLFPPKPKDTLMISRTPEVTCVVIDVAEEDGEVKFNWYVDGVEVHNAKTKPREEQDNSTYRVVSVLTVLHQDWLNGKEYKCKVSNKGLPRPIEKTISKAKGQPREPQVYTLPPSRDELTKNQVSLTCLVKGFYPSDIAVEWESNGQPENNYKTTPPVLDSDGSFFLYSKLTVDKSRWQQGNVFSCSVMHEALHNHYTQESLSLSP
light: not shown
notes: human IgG1
For B1, the Kd in experiment [1] amounted to 2.1 nM; in experiment [2] it was 110 nM; in experiment [3], 1300 nM; in experiment [4], 3.7 nM. In addition, the “Relative FcgRIIaR-binding Activity” value in experiment [5] was found to be 9.9. Moreover, in experiment [6], the “Relative FcgRIIb-binding Activity” value was 837.

B2: IL6R-BP503/IL6R-L (antibody, human IgG1, kappa, name in EU numbering)
heavy: QVQLQESGPGLVKPSETLSLTCAVSGHSISHDHAWSWVRQPPGEGLEWIGFISYSGITNYNPSLQGRVTISRDNSKNTLYLQMNSLRAEDTAVYYCARSLARTTAMDYWGEGTLVTVSSASTKGPSVFPLAPSSKSTSGGTAALGCLVKDYFPEPVTVSWNSGALTSGVHTFPAVLQSSGLYSLSSVVTVPSSSLGTQTYICNVNHKPSNTKVDKKVEPKSCDKTHTCPPCPAPDLLGDDSVFLFPPKPKDTLMISRTPEVTCVVIDVAEEDGEVKFNWYVDGVEVHNAKTKPREEQDNSTYRVVSVLTVLHQDWLNGKEYKCKVSNKGLPRPIEKTISKAKGQPREPQVYTLPPSRDELTKNQVSLTCLVKGFYPSDIAVEWESNGQPENNYKTTPMVLDSDGSFFLYSKLTVDKSRWQQGNVFSCSVMHEALHNHYTQESLSLSP
light: not shown
notes: human IgG1
Consider B2, for which the Kd in experiment [1] stood at 1.2 nM; in experiment [2], 57 nM; in experiment [3], 860 nM; in experiment [4], 1.7 nM. Moreover, the “Relative FcgRIIaR-binding Activity” value in experiment [5] was 19. Further, in experiment [6], the “Relative FcgRIIb-binding Activity” value is 1810.

B3: IL6R-BP511/IL6R-L (antibody, human IgG1, kappa, name in EU numbering)
heavy: QVQLQESGPGLVKPSETLSLTCAVSGHSISHDHAWSWVRQPPGEGLEWIGFISYSGITNYNPSLQGRVTISRDNSKNTLYLQMNSLRAEDTAVYYCARSLARTTAMDYWGEGTLVTVSSASTKGPSVFPLAPSSKSTSGGTAALGCLVKDYFPEPVTVSWNSGALTSGVHTFPAVLQSSGLYSLSSVVTVPSSSLGTQTYICNVNHKPSNTKVDKKVEPKSCDKTHTCPPCPAPELLGDDSVFLFPPKPKDTLMISRTPEVTCVVIDVAEEDGPVKFNWYVDGVEVHNAKTKPREEQDNSTYRVVSVLTVLHQDWLNGKEYKCKVSNKALPRPIEKTISKAKGQPREPQVYTLPPSRDELTKNQVSLTCLVKGFYPSDIAVEWESNGQPENNYKTTPPVLDSDGSFFLYSKLTVDKSRWQQGNVFSCSVMHEALHNHYTQESLSLSP
light: not shown
notes: human IgG1
B3: the Kd was 6 nM in experiment [1], 180 nM in experiment [2], 4300 nM in experiment [3] and 3.5 nM in experiment [4]. In experiment [5], the “Relative FcgRIIaR-binding Activity” value was 6.1. For the same molecule, in experiment [6], the “Relative FcgRIIb-binding Activity” value is 888.

B4: IL6R-BP533/IL6R-L (antibody, human IgG1, kappa, name in EU numbering)
heavy: QVQLQESGPGLVKPSETLSLTCAVSGHSISHDHAWSWVRQPPGEGLEWIGFISYSGITNYNPSLQGRVTISRDNSKNTLYLQMNSLRAEDTAVYYCARSLARTTAMDYWGEGTLVTVSSASTKGPSVFPLAPSSKSTSGGTAALGCLVKDYFPEPVTVSWNSGALTSGVHTFPAVLQSSGLYSLSSVVTVPSSSLGTQTYICNVNHKPSNTKVDKKVEPKSCDKTHTCPPCPAPDLLGDDSVFLFPPKPKDTLMISRTPEVTCVVIDVGEEDGEVKFNWYVDGVEVHNAKTKPREEQDNSTYRVVSVLTVLHQDWLNGKEYKCKVSNKALPRPIEKTISKAKGQPREPQVYTLPPSRDELTKNQVSLTCLVKGFYPSDIAVEWESNGQPENNYKTTPLVLDSDGSFFLYSKLTVDKSRWQQGNVFSCSVMHEALHNHYTQESLSLSP
light: not shown
notes: human IgG1
With B4, the Kd in experiment [1] is 7.7 nM; in experiment [2], 120 nM; in experiment [3] it was 2600 nM; in experiment [4], 4.1 nM. Further, in experiment [5], the “Relative FcgRIIaR-binding Activity” value was determined as 9. The “Relative FcgRIIb-binding Activity” value in experiment [6] was determined as 754.
